Experimental data taken from patent US20060104980A1.

Experiments:
[1] = target: HCV 1b E2 deletion construct pDN-411 (influenza virus; Hepatitis C virus genotype 1b); test: GNA capture ELISA, HEK-293 extracts
[2] = target: HCV 1b E2 deletion construct pDN-411 (influenza virus; Hepatitis C virus genotype 1b); test: flow cytometry, transiently transfected HEK-293 cells, 10 ug/ml

Row | Substance | OD [1] | mean fluorescence [2]
1 | HMAb CBH-2 (antibody) | 0.1 to 0.5 od | 
2 | HMAb CBH-4B (antibody) | > 0.5 od | 17
3 | HMAb CBH-5 (antibody) | > 0.5 od | 17
4 | HMAb CBH-7 (antibody) | > 0.5 od | 19
5 | HMAb CBH-8C (antibody) | > 0.5 od | 
6 | HMAb CBH-8E (antibody) | 0.1 to 0.5 od | 
7 | HMAb CBH-17 (antibody) | 0.1 to 0.5 od | 
